Tests used:
[1] = target: T1, Human Neutrophil Elastase (human, UniProt P08246); assay: progressive inhibition of hNE substrate hydrolysis after addition of inhibitor
Protocol: The kinetic on-rates for the inhibitors reacting with hNE (kₒₙ) were determined from measurements of progressive inhibition of substrate hydrolytic activity by hNE following addition of inhibitor. For these experiments, a known concentration of inhibitor was added to a solution of hNE (0.847 nM) and substrate (25 μM) in 2 ml of reaction buffer in a plastic fluorescence cuvette. The change in fluorescence was recorded continuously following addition of the inhibitor. […] The enzymatic rate at selected times following addition of the inhibitor was determined from the slope of the tangent to the fluorescence time course at that time.
The kinetic constant kₒₙ for EPI-HNE-2 reacting with hNE was determined as follows. EPI-HNE-2 at 1.3 nM was added to buffer containing 0.867 nM hNE (I:E=1.5:1) at time 0.

[2] = target: T1, Human Neutrophil Elastase; assay: enzyme inhibition assay
Protocol: (§1) Inhibition constants for the proteins reacting with hNE (Kᵢ) were determined using RT measurements of hydrolysis of a fluorogenic substrate (N-methoxysuccinyl-Ala-Ala-Pro-Val-7-amino-4-methylcoumarin, Sigma M-9771) by hNE. […] The reactions were incubated at RT for 30 minutes. At the end of the incubation period, the fluorogenic substrate was added at a concentration of 25 μM and the time course for increase in fluorescence at 470 nm (excitation at 380 nm) due to enzymatic substrate cleavage was recorded using a spectrofluorimeter (Perkin-Elmer 650-15) and strip chart recorder. […] Kᵢ is related to Kₐₚₚₐᵣₑₙₜ by Kᵢ=Kₐₚₚₐᵣₑₙₜ×(1/(1+(S₀/Kₘ))). The correction is small compared to the possible errors in Kₐₚₚₐᵣₑₙₜ. Rates of enzymatic substrate cleavage were determined from the linear slopes of the recorded increases in fluorescence.
(§2) We recorded data used to determine Kᵢ for EPI-HNE-2 and EPI-HNE-3 reacting with hNE. Data obtained as described above are recorded as percent residual activity plotted as a function of added inhibitor. […] From the data, Kᵢ values for EPI-HNE-2 and for EPI-HNE-3 reacting with hNE at RT were calculated to be 4.8 pM and 6.2 pM, respectively.

[3] = target: T1, Human Neutrophil Elastase; assay: hNE inhibition assay of EPI-HNE-3 stored in unbuffered water at 4° C. for five months
[4] = target: T1, Human Neutrophil Elastase; assay: calculated by the filing from koff = KD × kon
Text: […] […] B. Specificity.

[5] = target: Human Pancreatic Chymotrypsin (human, UniProt P17538); assay: enzyme inhibition assay; said to be probably not specific
Human Urine Urokinase = Human Urine Urokinase (human, UniProt P00749); assay: enzyme inhibition assay; limit on the assumption of less than 10% inhibition at the highest concentration tested
Human Plasma Factor Xa = Human Plasma Factor Xa (human, UniProt P00742); assay: as above
Human Serum Kallikrein = Human Serum Kallikrein (human, UniProt P03952); assay: as above
Human Serum Plasmin = Human Serum Plasmin (human, UniProt P00747); assay: as above
Human Serum Thrombin = Human Serum Thrombin (human, UniProt P00734); assay: as above
[6] = target: T1, Human Neutrophil Elastase; assay: inhibition of hNE hydrolysis of a fluorogenic substrate, [hNE] = 8.47 × 10^-10 molar
Protocol: as §1, §2

[7] = target: T1, Human Neutrophil Elastase; assay: pH elution of display phage from hNE beads, extended protocol
Text: (§3) Total pfu applied to the beads are in column two. The fractions of this input pfu recovered in each pH fraction of the abbreviated pH elution protocol (pH 7.0, pH 3.5, and pH 2.0) are in the next three columns. For data obtained using the extended pH elution protocol, the pH 3.5 listing represents the sum of the fractions of input recovered in the pH 6.0, pH 5.5, pH 5.0, pH 4.5, pH 4.0, and pH 3.5 elution samples. The pH 2.0 listing is the sum of the fractions of input obtained from the pH 3.0, pH 2.5, and pH 2.0 elution samples. The total fraction of input pfu obtained throughout the pH elution protocol is in the sixth column. The final column of the table lists the total fraction of input pfu recovered, normalized to the value obtained for MA-BITI-E7-141 phage.

[8] = target: T1, Human Neutrophil Elastase; assay: pH elution of display phage from hNE beads
[9] = target: T1, Human Neutrophil Elastase; assay: pH elution of display phage from hNE beads, abbreviated protocol
Text: as §3

[10] = target: T1, Human Neutrophil Elastase; assay: abbreviated fractionation of display phage on hNE beads
Protocol: (§4) To test if ITI-D1E7-display phage bind hNE beads, pH elution profiles were measured. Aliquots of EpiNE-7, MA-ITI-D1, and MA-ITI-D1E7 display phage were incubated with hNE beads for three hours at room temperature (RT). The beads were washed and phage were eluted as described in U.S. Pat. No. 5,223,409, except that only three pH elutions were performed.

[11] = target: T1, Human Neutrophil Elastase; assay: display phage eluted from hNE beads, normalized to MA-EpiNE7 in a concurrent elution
[12] = target: T1, Human Neutrophil Elastase; assay: display phage on hNE beads, pH elution
Protocol: as §4

B1: EPI-HNE-3 (designed binder)
chain: AACNLPIVRGPCIAFFPRWAFDAVKGKCVLFPYGGCQGNGNKFYSEKECREYCGVP
Work on B1 yielded a kon [1] of 8e+06 M⁻¹ s⁻¹, a Ki [2] of 6 pM and a Ki [3] of about 12 pM. The koff [4] was 5e-05 s⁻¹, the Ki [5] was about 30 µM and the Ki (Human Urine Urokinase) was over 100 µM. It also gave a Ki (Human Plasma Factor Xa) of over 100 µM, a Ki (Human Serum Kallikrein) of over 100 µM and a Ki (Human Serum Plasmin) of over 100 µM. For the same binder, the Ki (Human Serum Thrombin) was over 100 µM and the Kd [6] was 6.2 pM.

B2: AMINO1 display phage (designed binder)
chain: KEDFCQLGYSAGPCVAMFPRYFYNGTSMACETFQYGGCMGNGNNFVTEKDCLQTCRGA
With B2 the “Fraction of Input recovered at pH2.0” value [7] was 3.5e-05 fraction of input, the “Fraction of Input recovered at pH3.5” value [7] was 0.00023 fraction of input and the “Fraction of Input recovered at pH7.0” value [7] was 2.4e-05 fraction of input. For the same binder, the “Recovery Relative to BITI-E7-141” value [7] was 0.11 ratio, the “Recovery, Total fraction of input” value [7] was 0.00029 fraction of input and the “fold reduction of binding against parental MA-BITI-E7-141” value [8] was at least 10 fold.

B3: AMINO2 display phage (designed binder)
chain: KPDSCQLGYSAGPCVAMFPRYFYNGTSMACETFQYGGCMGNGNNFVTEKDCLQTCRGA
For B3, the “Fraction of Input recovered at pH2.0” value [9] was 4.5e-05 fraction of input, the “Fraction of Input recovered at pH3.5” value [9] was 0.00021 fraction of input and the “Fraction of Input recovered at pH7.0” value [9] was 5.7e-05 fraction of input. For the same binder, the “Recovery Relative to BITI-E7-141” value [9] was 0.12 ratio, the “Recovery, Total fraction of input” value [9] was 0.00031 fraction of input and the “fold reduction of binding against parental MA-BITI-E7-141” value [8] was at least 10 fold.

B4: MA-ITI-D1E7 display phage (designed binder)
chain: KEDSCQLGYSAGPCVAMFPRYFYNGTSMACETFQYGGCMGNGNNFVTEKDCLQTCRGA
B4 was tested, and the “fraction of input eluted at pH 3.5” value [10] was 8e-05 fraction of input, the “fraction of input in Wash” value [10] was 2e-05 fraction of input and the “Normalized fraction of input (relative to recovered MA-EpiNE7)” value [11] was 0.027 ratio. The “fold less total fraction eluted than EpiNE-7 display phage” value [12] was about 40 fold.

Reference: patent US20060134087A1, “ITI-D1 Kunitz domain mutants as hNE inhibitors” (Dyax Corp., published 2006)
